# Results as given in patent US20190338009A1 (ZEALAND PHARMA A S, published 2019).
# Square brackets hold non-standard residues; d marks the D form. Aib = CC(C)(N)C(=O)O
# T1: human GLP-2 receptor (hGLP2-R) (human, UniProt O95838 1-553)
# T1 sequence (looked up): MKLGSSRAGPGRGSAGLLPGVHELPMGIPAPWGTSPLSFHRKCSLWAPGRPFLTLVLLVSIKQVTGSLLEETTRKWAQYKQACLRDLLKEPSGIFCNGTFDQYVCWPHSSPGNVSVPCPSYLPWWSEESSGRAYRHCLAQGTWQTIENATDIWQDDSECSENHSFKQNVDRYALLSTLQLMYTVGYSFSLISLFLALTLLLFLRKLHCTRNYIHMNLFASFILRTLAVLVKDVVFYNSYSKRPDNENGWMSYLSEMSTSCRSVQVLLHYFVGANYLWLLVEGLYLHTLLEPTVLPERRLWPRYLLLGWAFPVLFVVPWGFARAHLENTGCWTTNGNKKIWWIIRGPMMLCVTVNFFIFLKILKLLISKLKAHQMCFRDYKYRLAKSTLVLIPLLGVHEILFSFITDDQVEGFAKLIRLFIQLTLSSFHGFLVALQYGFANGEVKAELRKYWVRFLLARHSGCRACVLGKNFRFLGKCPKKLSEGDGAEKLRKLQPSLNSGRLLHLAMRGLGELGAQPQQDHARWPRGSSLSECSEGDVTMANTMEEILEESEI
# Key:
# [1] = target: human glucagon-like peptide 1 receptor (GLP-1R) (human, UniProt P43220 24-463); assay: cell-based or functional assay
# [2] = target: T1, human GLP-2 receptor (hGLP2-R); assay: cell-based or functional assay
Binder,"EC50 GLP-1 (nM); cAMP AlphaScreen, HEK293 cells expressing human GLP-1R [1]","EC50 GLP-2 (nM); cAMP AlphaScreen, HEK293 cells expressing human GLP-2R [2]"
H-H[Aib]EGTFTSELATILDEQAARDFINWLKSYKITD-OH (SMILES CC[C@H](C)[C@H](NC(=O)[C@H](Cc1ccccc1)NC(=O)[C@H](CC(=O)O)NC(=O)[C@H](CCCNC(=N)N)NC(=O)[C@H](C)NC(=O)[C@H](C)NC(=O)[C@H](CCC(N)=O)NC(=O)[C@H](CCC(=O)O)NC(=O)[C@H](CC(=O)O)NC(=O)[C@H](CC(C)C)NC(=O)[C@@H](NC(=O)[C@@H](NC(=O)[C@H](C)NC(=O)[C@H](CC(C)C)NC(=O)[C@H](CCC(=O)O)NC(=O)[C@H](CO)NC(=O)[C@@H](NC(=O)[C@H](Cc1ccccc1)NC(=O)[C@@H](NC(=O)CNC(=O)[C@H](CCC(=O)O)NC(=O)C(C)(C)NC(=O)[C@@H](N)Cc1c[nH]cn1)[C@@H](C)O)[C@@H](C)O)[C@@H](C)O)[C@@H](C)CC)C(=O)N[C@@H](CC(N)=O)C(=O)N[C@@H](Cc1c[nH]c2ccccc12)C(=O)N[C@@H](CC(C)C)C(=O)N[C@@H](CCCCN)C(=O)N[C@@H](CO)C(=O)N[C@@H](Cc1ccc(O)cc1)C(=O)N[C@@H](CCCCN)C(=O)N[C@H](C(=O)N[C@H](C(=O)N[C@@H](CC(=O)O)C(=O)O)[C@@H](C)O)[C@@H](C)CC) [Compound 36],0.007 nM,0.11 nM
H-HGEGTFTSELATILDEQAARDFIAWLIAHKITD-OH [Compound 38],0.008 nM,0.043 nM
H-H[Aib]EGTFTSELATILDEQAARDFINWLKEQKITD-OH (SMILES CC[C@H](C)[C@H](NC(=O)[C@H](Cc1ccccc1)NC(=O)[C@H](CC(=O)O)NC(=O)[C@H](CCCNC(=N)N)NC(=O)[C@H](C)NC(=O)[C@H](C)NC(=O)[C@H](CCC(N)=O)NC(=O)[C@H](CCC(=O)O)NC(=O)[C@H](CC(=O)O)NC(=O)[C@H](CC(C)C)NC(=O)[C@@H](NC(=O)[C@@H](NC(=O)[C@H](C)NC(=O)[C@H](CC(C)C)NC(=O)[C@H](CCC(=O)O)NC(=O)[C@H](CO)NC(=O)[C@@H](NC(=O)[C@H](Cc1ccccc1)NC(=O)[C@@H](NC(=O)CNC(=O)[C@H](CCC(=O)O)NC(=O)C(C)(C)NC(=O)[C@@H](N)Cc1c[nH]cn1)[C@@H](C)O)[C@@H](C)O)[C@@H](C)O)[C@@H](C)CC)C(=O)N[C@@H](CC(N)=O)C(=O)N[C@@H](Cc1c[nH]c2ccccc12)C(=O)N[C@@H](CC(C)C)C(=O)N[C@@H](CCCCN)C(=O)N[C@@H](CCC(=O)O)C(=O)N[C@@H](CCC(N)=O)C(=O)N[C@@H](CCCCN)C(=O)N[C@H](C(=O)N[C@H](C(=O)N[C@@H](CC(=O)O)C(=O)O)[C@@H](C)O)[C@@H](C)CC) [Compound 37],0.007 nM,0.16 nM

# Results, then the binder that gave them:
"EC50 GLP-1 (nM); cAMP AlphaScreen, HEK293 cells expressing human GLP-1R [1]","EC50 GLP-2 (nM); cAMP AlphaScreen, HEK293 cells expressing human GLP-2R [2]",Binder
0.03 nM,0.96 nM,H-H[Aib]EGTFSSELSTILEEQASREFIAWLIAHKITE-OH (SMILES CC[C@H](C)[C@H](NC(=O)[C@H](CC(C)C)NC(=O)[C@H](Cc1c[nH]c2ccccc12)NC(=O)[C@H](C)NC(=O)[C@@H](NC(=O)[C@H](Cc1ccccc1)NC(=O)[C@H](CCC(=O)O)NC(=O)[C@H](CCCNC(=N)N)NC(=O)[C@H](CO)NC(=O)[C@H](C)NC(=O)[C@H](CCC(N)=O)NC(=O)[C@H](CCC(=O)O)NC(=O)[C@H](CCC(=O)O)NC(=O)[C@H](CC(C)C)NC(=O)[C@@H](NC(=O)[C@@H](NC(=O)[C@H](CO)NC(=O)[C@H](CC(C)C)NC(=O)[C@H](CCC(=O)O)NC(=O)[C@H](CO)NC(=O)[C@H](CO)NC(=O)[C@H](Cc1ccccc1)NC(=O)[C@@H](NC(=O)CNC(=O)[C@H](CCC(=O)O)NC(=O)C(C)(C)NC(=O)[C@@H](N)Cc1c[nH]cn1)[C@@H](C)O)[C@@H](C)O)[C@@H](C)CC)[C@@H](C)CC)C(=O)N[C@@H](C)C(=O)N[C@@H](Cc1c[nH]cn1)C(=O)N[C@@H](CCCCN)C(=O)N[C@H](C(=O)N[C@H](C(=O)N[C@@H](CCC(=O)O)C(=O)O)[C@@H](C)O)[C@@H](C)CC) [Compound 39]
1.4 nM,0.05 nM,H-HGEGSFSSELATILDEQAARDFIAWLIQHKITD-NH2 [Compound 40]
0.078 nM,0.026 nM,H-H[Aib]EGSFSSELATILDEQAARDFIAWLIQHKITD-OH (SMILES CC[C@H](C)[C@H](NC(=O)[C@H](Cc1ccccc1)NC(=O)[C@H](CC(=O)O)NC(=O)[C@H](CCCNC(=N)N)NC(=O)[C@H](C)NC(=O)[C@H](C)NC(=O)[C@H](CCC(N)=O)NC(=O)[C@H](CCC(=O)O)NC(=O)[C@H](CC(=O)O)NC(=O)[C@H](CC(C)C)NC(=O)[C@@H](NC(=O)[C@@H](NC(=O)[C@H](C)NC(=O)[C@H](CC(C)C)NC(=O)[C@H](CCC(=O)O)NC(=O)[C@H](CO)NC(=O)[C@H](CO)NC(=O)[C@H](Cc1ccccc1)NC(=O)[C@H](CO)NC(=O)CNC(=O)[C@H](CCC(=O)O)NC(=O)C(C)(C)NC(=O)[C@@H](N)Cc1c[nH]cn1)[C@@H](C)O)[C@@H](C)CC)C(=O)N[C@@H](C)C(=O)N[C@@H](Cc1c[nH]c2ccccc12)C(=O)N[C@@H](CC(C)C)C(=O)N[C@H](C(=O)N[C@@H](CCC(N)=O)C(=O)N[C@@H](Cc1c[nH]cn1)C(=O)N[C@@H](CCCCN)C(=O)N[C@H](C(=O)N[C@H](C(=O)N[C@@H](CC(=O)O)C(=O)O)[C@@H](C)O)[C@@H](C)CC)[C@@H](C)CC) [Compound 41]
